Assay results as given in the supplement of paper PMC5998384.

Experiments:
HeLa Kyoto [1] = test: solubility in G1/S (NP-40 vs SDS abundance) (log2 ratio); higher = more soluble; conditions: cell cycle stage: G1/S
HeLa Kyoto [2] = test: solubility change mitosis vs G1/S (difference of NP-40 vs SDS log2 ratios) (log2 ratio difference); higher = more soluble in mitosis
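Wherever solubility change mitosis vs G1/S (difference of NP-40 vs SDS log2 ratios) is given: synchronized HeLa Kyoto cells (double thymidine block for G1/S, nocodazole release for mitosis), protein amounts in NP-40 versus SDS lysates quantified by mass spectrometry, three biological replicates.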
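Wherever solubility in G1/S (NP-40 vs SDS abundance) is given: HeLa Kyoto cells arrested at G1/S by double thymidine block, proteins quantified by TMT10plex mass spectrometry in mild NP-40 versus SDS extracts, three biological replicates.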

Sequence of ATRN (chain, as listed by the source): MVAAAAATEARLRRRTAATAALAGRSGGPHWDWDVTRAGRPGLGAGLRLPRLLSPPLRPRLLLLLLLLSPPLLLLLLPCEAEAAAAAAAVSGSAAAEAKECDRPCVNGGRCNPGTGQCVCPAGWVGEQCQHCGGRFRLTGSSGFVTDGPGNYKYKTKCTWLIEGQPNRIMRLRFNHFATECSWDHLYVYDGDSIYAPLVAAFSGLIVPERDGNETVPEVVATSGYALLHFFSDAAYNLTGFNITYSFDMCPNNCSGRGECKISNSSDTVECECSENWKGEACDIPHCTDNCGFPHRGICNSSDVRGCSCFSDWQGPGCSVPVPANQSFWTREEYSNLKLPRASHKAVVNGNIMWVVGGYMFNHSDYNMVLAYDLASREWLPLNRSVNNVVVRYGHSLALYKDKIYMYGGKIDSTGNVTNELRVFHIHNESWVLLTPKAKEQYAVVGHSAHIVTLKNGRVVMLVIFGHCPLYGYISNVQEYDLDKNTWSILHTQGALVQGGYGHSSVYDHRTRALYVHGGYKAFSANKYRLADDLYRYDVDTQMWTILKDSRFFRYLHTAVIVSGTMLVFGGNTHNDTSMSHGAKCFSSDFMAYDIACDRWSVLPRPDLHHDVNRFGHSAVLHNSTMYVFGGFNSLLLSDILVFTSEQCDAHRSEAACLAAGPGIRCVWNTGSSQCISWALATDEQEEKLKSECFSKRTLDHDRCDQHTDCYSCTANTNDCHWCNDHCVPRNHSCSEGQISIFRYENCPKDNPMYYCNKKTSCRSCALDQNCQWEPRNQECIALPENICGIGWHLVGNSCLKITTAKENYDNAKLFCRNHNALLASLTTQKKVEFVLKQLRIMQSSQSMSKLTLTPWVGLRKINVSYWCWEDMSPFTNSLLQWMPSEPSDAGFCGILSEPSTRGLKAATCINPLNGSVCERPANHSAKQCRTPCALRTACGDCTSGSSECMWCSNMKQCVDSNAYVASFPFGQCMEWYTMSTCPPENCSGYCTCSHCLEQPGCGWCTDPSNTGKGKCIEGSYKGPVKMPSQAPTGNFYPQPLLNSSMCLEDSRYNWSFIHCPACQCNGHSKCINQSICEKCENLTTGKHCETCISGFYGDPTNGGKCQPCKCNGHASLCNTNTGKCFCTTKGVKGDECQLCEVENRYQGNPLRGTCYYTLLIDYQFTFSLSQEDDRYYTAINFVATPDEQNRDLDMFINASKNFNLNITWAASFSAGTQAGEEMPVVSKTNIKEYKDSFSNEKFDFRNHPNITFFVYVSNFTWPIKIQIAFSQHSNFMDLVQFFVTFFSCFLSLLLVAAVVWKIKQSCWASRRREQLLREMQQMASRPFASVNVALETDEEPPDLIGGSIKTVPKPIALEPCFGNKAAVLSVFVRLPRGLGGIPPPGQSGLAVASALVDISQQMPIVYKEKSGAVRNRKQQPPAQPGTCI
Sequence of TAF5L (chain, as listed by the source): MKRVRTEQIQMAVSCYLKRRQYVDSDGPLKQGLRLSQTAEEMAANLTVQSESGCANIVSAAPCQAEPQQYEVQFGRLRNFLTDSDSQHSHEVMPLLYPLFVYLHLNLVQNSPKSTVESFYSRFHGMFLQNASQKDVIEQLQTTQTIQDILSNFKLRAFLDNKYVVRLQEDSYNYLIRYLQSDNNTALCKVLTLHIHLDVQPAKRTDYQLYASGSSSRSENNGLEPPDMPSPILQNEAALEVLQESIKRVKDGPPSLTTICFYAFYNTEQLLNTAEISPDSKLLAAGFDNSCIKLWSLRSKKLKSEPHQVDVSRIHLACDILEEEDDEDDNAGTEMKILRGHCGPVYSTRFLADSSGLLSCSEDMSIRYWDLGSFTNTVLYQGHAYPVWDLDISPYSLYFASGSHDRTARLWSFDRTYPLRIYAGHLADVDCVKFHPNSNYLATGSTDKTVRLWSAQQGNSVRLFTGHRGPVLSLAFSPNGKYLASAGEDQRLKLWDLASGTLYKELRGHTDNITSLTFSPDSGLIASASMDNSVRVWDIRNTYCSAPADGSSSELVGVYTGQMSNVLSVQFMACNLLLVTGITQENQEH

| Substance | solubility in G1/S (log2) (HeLa Kyoto [1]) | solubility change mitosis (log2) (HeLa Kyoto [2]) |
| --- | --- | --- |
| MAEASSANLGSGCEEKRHEGSSSESVPPGTTISRVKLLDTMVDTFLQKLVAAGSYQRFTDCYKCFYQLQPAMTQQIYDKFIAQLQTSIREEISDIKEEGNLEAVLNALDKIVEEGKVRKEPAWRPSGIPEKDLHSVMAPYFLQQRDTLRRHVQKQEAENQQLADAVLAGRRQVEELQLQVQAQQQAWQALHREQRELVAVLREPE [PMF1] | 0.135 | 0.643 |
| MRDSTGAGNSLVHKRSPLRRNQKTPTSLTKLSLQDGHKAKKPACKFEEGQDVLARWSDGLFYLGTIKKINILKQSCFIIFEDSSKSWVLWKDIQTGATGSGEMVCTICQEEYSEAPNEMVICDKCGQGYHQLCHTPHIDSSVIDSDEKWLCRQCVFATTTKRGGALKKGPNAKALQVMKQTLPYSVADLEWDAGHKTNVQQCYCYCGGPGDWYLKMLQCCKCKQWFHEACVQCLQKPMLFGDRFYTFICSVCSSGPEYLKRLPLQWVDIAHLCLYNLSVIHKKKYFDSELELMTYINENWDRLHPGELADTPKSERYEHVLEALNDYKTMFMSGKEIKKKKHLFGLRIRVPPVPPNVAFKAEKEPEGTSHEFKIKGRKASKPISDSREVSNGIEKKGKKKSVGRPPGPYTRKMIQKTAEPLLDKESISENPTLDLPCSIGRTEGTAHSSNTSDVDFTGASSAKETTSSSISRHYGLSDSRKRTRTGRSWPAAIPHLRRRRGRLPRRALQTQNSEIVKDDEGKEDYQFDELNTEILNNLADQELQLNHLKNSITSYFGAAGRIACGEKYRVLARRVTLDGKVQYLVEWEGATAS [MTF2] | -1.31 | 0.618 |
| MDLVGVASPEPGTAAAWGPSKCPWAIPQNTISCSLADVMSEQLAKELQLEEEAAVFPEVAVAEGPFITGENIDTSSDLMLAQMLQMEYDREYDAQLRREEKKFNGDSKVSISFENYRKVHPYEDSDSSEDEVDWQDTRDDPYRPAKPVPTPKKGFIGKGKDITTKHDEVVCGRKNTARMENFAPEFQVGDGIGMDLKLSNHVFNALKQHAYSEERRSARLHEKKEHSTAEKAVDPKTRLLMYKMVNSGMLETITGCISTGKESVVFHAYGGSMEDEKEDSKVIPTECAIKVFKTTLNEFKNRDKYIKDDFRFKDRFSKLNPRKIIRMWAEKEMHNLARMQRAGIPCPTVVLLKKHILVMSFIGHDQVPAPKLKEVKLNSEEMKEAYYQTLHLMRQLYHECTLVHADLSEYNMLWHAGKVWLIDVSQSVEPTHPHGLEFLFRDCRNVSQFFQKGGVKEALSERELFNAVSGLNITADNEADFLAEIEALEKMNEDHVQKNGRKAASFLKDDGDPPLLYDE [RIOK3] | 0.0978 | -0.00535 |
| MFSALKKLVGSDQAPGRDKNIPAGLQSMNQALQRRFAKGVQYNMKIVIRGDRNTGKTALWHRLQGRPFVEEYIPTQEIQVTSIHWSYKTTDDIVKVEVWDVVDKGKCKKRGDGLKMENDPQEAESEMALDAEFLDVYKNCNGVVMMFDITKQWTFNYILRELPKVPTHVPVCVLGNYRDMGEHRVILPDDVRDFIDNLDRPPGSSYFRYAESSMKNSFGLKYLHKFFNIPFLQLQRETLLRQLETNQLDMDATLEELSVQQETEDQNYGIFLEMMEARSRGHASPLAANGQSPSPGSQSPVVPAGAVSTGSSSPGTPQPAPQLPLNAAPPSSVPPVPPSEALPPPACPSAPAPRRSIISRLFGTSPATEAAPPPPEPVPAAEGPATVQSVEDFVPDDRLDRSFLEDTTPARDEKKVGAKAAQQDSDSDGEALGGNPMVAGFQDDVDLEDQPRGSPPLPAGPVPSQDITLSSEEEAEVAAPTKGPAPAPQQCSEPETKWSSIPASKPRRGTAPTRTAAPPWPGGVSVRTGPEKRSSTRPPAEMEPGKGEQASSSESDPEGPIAAQMLSFVMDDPDFESEGSDTQRRADDFPVRDDPSDVTDEDEGPAEPPPPPKLPLPAFRLKNDSDLFGLGLEEAGPKESSEEGKEGKTPSKEKKKKKKKGKEEEEKAAKKKSKHKKSKDKEEGKEERRRRQQRPPRSRERTAADELEAFLGGGAPGGRHPGGGDYEEL [RABL6] | 0.183 | -0.0863 |
| MPLGLKPTCSVCKTTSSSMWKKGAQGEILCHHCTGRGGAGSGGAGSGAAGGTGGSGGGGFGAATFASTSATPPQSNGGGGGKQSKQEIHRRSARLRNTKYKSAPAAEKKVSTKGKGRRHIFKLKNPIKAPESVSTIITAESIFYKGVYYQIGDVVSVIDEQDGKPYYAQIRGFIQDQYCEKSAALTWLIPTLSSPRDQFDPASYIIGPEEDLPRKMEYLEFVCHAPSEYFKSRSSPFPTVPTRPEKGYIWTHVGPTPAITIKESVANHL [GATAD1] | -0.0455 | 0.25 |
| ATRN | 0.238 | -0.041 |
| ZFYVE26 | 0.0351 | -0.0176 |
| MGAQDRPQCHFDIEINREPVGRIMFQLFSDICPKTCKNFLCLCSGEKGLGKTTGKKLCYKGSTFHRVVKNFMIQGGDFSEGNGKGGESIYGGYFKDENFILKHDRAFLLSMANRGKHTNGSQFFITTKPAPHLDGVHVVFGLVISGFEVIEQIENLKTDAASRPYADVRVIDCGVLATKSIKDVFEKKRKKPTHSEGSDSSSNSSSSSESSSESELEHERSRRRKHKRRPKVKRSKKRRKEASSSEEPRNKHAMNPKGHSERSDTNEKRSVDSSAKREKPVVRPEEIPPVPENRFLLRRDMPVVTAEPEPKIPDVAPIVSDQKPSVSKSGRKIKGRGTIRYHTPPRSRSCSESDDDDSSETPPHWKEEMQRLRAYRPPSGEKWSKGDKLSDPCSSRWDERSLSQRSRSWSYNGYYSDLSTARHSGHHKKRRKEKKVKHKKKGKKQKHCRRHKQTKKRRILIPSDIESSKSSTRRMKSSCDRERSSRSSSLSSHHSSKRDWSKSDKDVQSSLTHSSRDSYRSKSHSQSYSRGSSRSRTASKSSSHSRSRSKSRSSSKSGHRKRASKSPRKTASQLSENKPVKTEPLRATMAQNENVVVQPVVAENIPVIPLSDSPPPSRWKPGQKPWKPSYERIQEMKAKTTHLLPIQSTYSLANIKETGSSSSYHKREKNSESDQSTYSKYSDRSSESSPRSRSRSSRSRSYSRSYTRSRSLASSHSRSRSPSSRSHSRNKYSDHSQCSRSSSYTSISSDDGRRAKRRLRSSGKKNSVSHKKHSSSSEKTLHSKYVKGRDRSSCVRKYSESRSSLDYSSDSEQSSVQATQSAQEKEKQGQMERTHNKQEKNRGEEKSKSERECPHSKKRTLKENLSDHLRNGSKPKRKNYAGSKWDSESNSERDVTKNSKNDSHPSSDKEEGEATSDSESEVSEIHIKVKPTTKSSTNTSLPDDNGAWKSSKQRTSTSDSEGSCSNSENNRGKPQKHKHGSKENLKREHTKKVKEKLKGKKDKKHKAPKRKQAFHWQPPLEFGEEEEEEIDDKQVTQESKEKKVSENNETIKDNILKTEKSSEEDLSGKHDTVTVSSDLDQFTKDDSKLSISPTALNTEENVACLQNIQHVEESVPNGVEDVLQTDDNMEICTPDRSSPAKVEETSPLGNARLDTPDINIVLKQDMATEHPQAEVVKQESSMSESKVLGEVGKQDSSSASLASAGESTGKKEVAEKSQINLIDKKWKPLQGVGNLAAPNAATSSAVEVKVLTTVPEMKPQGLRIEIKSKNKVRPGSLFDEVRKTARLNRRPRNQESSSDEQTPSRDDDSQSRSPSRSRSKSETKSRHRTRSVSYSHSRSRSRSSTSSYRSRSYSRSRSRGWYSRGRTRSRSSSYRSYKSHRTSSRSRSRSSSYDPHSRSRSYTYDSYYSRSRSRSRSQRSDSYHRGRSYNRRSRSCRSYGSDSESDRSYSHHRSPSESSRYS [NKTR] | -1.34 | 0.283 |
| TAF5L | -0.145 | -0.0612 |
| MAGEEINEDYPVEIHEYLSAFENSIGAVDEMLKTMMSVSRNELLQKLDPLEQAKVDLVSAYTLNSMFWVYLATQGVNPKEHPVKQELERIRVYMNRVKEITDKKKAGKLDRGAASRFVKNALWEPKSKNASKVANKGKSKS [C1D] | -0.223 | 0.679 |
